Data published in US20250326839A1 (VIGIL NEUROSCIENCE, published 2025).

T1: human TREM2 (human, UniProt Q9NZC2 19-174, limits assumed)
T1 construct: also called triggering receptor expressed on myeloid cells 2
T1 sequence: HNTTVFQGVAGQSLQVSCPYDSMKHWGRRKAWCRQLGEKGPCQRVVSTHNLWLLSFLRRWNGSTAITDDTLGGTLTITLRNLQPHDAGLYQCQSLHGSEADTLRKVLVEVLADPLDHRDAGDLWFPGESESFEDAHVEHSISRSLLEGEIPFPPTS


How the values were obtained:
human TREM2 [1] = target: T1, human TREM2; assay: 1st screen, 10 nM Ab
human TREM2 [2] = target: T1, human TREM2; assay: 2nd screen, 10 nM
human TREM2 [3] = target: T1, human TREM2; assay: 2nd screen, 2 nM

| Binder | Binding Signal (human TREM2 [1]) | Binding Signal (human TREM2 [2]) | Binding Signal (human TREM2 [3]) |
| --- | --- | --- | --- |
| V14 (antibody, V domains shown, also called 6E7 variant V14) VH: EVQLVQSGAEVKKPGESLKISCKGSGYSFGSYWIAWVRQMPGKGLEWMGIIYPGDQDTRYSPSFQGQVTISADKSISTAYLQWSSLKASDTAMYFCARGRTFYYDSSDYFDYWGQGTLVTVSS VL: DIQMTQSPSSVSASVGDRVTITCRASQGISSWLAWYQQKPGKAPKLLIYAASRLQNGVPSRFSGSGSGTDFTLTISSLQPEDFATYFCQQADSFPRTFGQGTKLEIK | 4.71 fold over 6E7 parental antibody | 4.64 fold over 6E7 parental antibody | 2.57 fold over 6E7 parental antibody |
| V40 (antibody, V domains shown, also called 6E7 variant V40) VH: EVQLVQSGAEVKKPGESLKISCKGSGYSFGSYWIAWVRQMPGKGLEWMGIIYPGDSDVRYSPSFQGQVTISADKSISTAYLQWSSLKASDTAMYFCARQRTFYYDSSDYSDYWGQGTLVTVSS VL: DIQMTQSPSSVSASVGDRVTITCRASQGISSWLAWYQQKPGKAPKLLIYAASSLQLGVPSRFSGSGSGTDFTLTISSLQPEDFATYFCQQADRFPRTFGQGTKLEIK | 4.48 fold over 6E7 parental antibody | 4.16 fold over 6E7 parental antibody | 3.41 fold over 6E7 parental antibody |
| V37 (antibody, V domains shown, also called 6E7 variant V37) VH: EVQLVQSGAEVKKPGESLKISCKGSGYSHTSYWIAWVRQMPGKGLEWMGIIYPGDSDTRYSPSFAGQVTISADKSISTAYLQWSSLKASDTAMYFCARSRTFYYDSSDYFDYWGQGTLVTVSS VL: DIQMTQSPSSVSASVGDRVTITCRASQGISSWLAWYQQKPGKAPKLLIYAASSLQWGVPSRFSGSGSGTDFTLTISSLQPEDFATYFCQQADSYPRTFGQGTKLEIK | 3.46 fold over 6E7 parental antibody | 3.49 fold over 6E7 parental antibody | 3.69 fold over 6E7 parental antibody |
| V39 (antibody, V domains shown, also called 6E7 variant V39) VH: EVQLVQSGAEVKKPGESLKISCKGSGYSFGSYWIAWVRQMPGKGLEWMGIIYPGDSDTRYNPSFQGQVTISADKSISTAYLQWSSLKASDTAMYFCARGRTFYYDSSDYFDYWGQGTLVTVSS VL: DIQMTQSPSSVSASVGDRVTITCRASQGISSWLAWYQQKPGKAPKLLIYAASSLVNGVPSRFSGSGSGTDFTLTISSLQPEDFATYFCQQADSSPRTFGQGTKLEIK | 6.15 fold over 6E7 parental antibody | 5.81 fold over 6E7 parental antibody | 5.11 fold over 6E7 parental antibody |
| V26 (antibody, V domains shown, also called 6E7 variant V26) VH: EVQLVQSGAEVKKPGESLKISCKGSGYSFTSYWIGWVRQMPGKGLEWMGTIYPGDSDTRYSPSFQGQVTISADKSISTAYLQWSSLKASDTAMYFCARQRTMYYDSSDYFDAWGQGTLVTVSS VL: DIQMTQSPSSVSASVGDRVTITCRASQGISSWLAWYQQKPGKAPKLLIYAASSLQRGVPSRFSGSGSGTDFTLTISSLQPEDFATYFCQQADSYPRTFGQGTKLEIK | 3.57 fold over 6E7 parental antibody | 3.47 fold over 6E7 parental antibody | 2.83 fold over 6E7 parental antibody |
| V25 (antibody, V domains shown, also called 6E7 variant V25) VH: EVQLVQSGAEVKKPGESLKISCKGSGYSFGSYWIAWVRQMPGKGLEWMGLIYPGDSDTRYSPSFQGQVTISADKSISTAYLQWSSLKASDTAMYFCARSRTFYYDSSDYFDYWGQGTLVTVSS VL: DIQMTQSPSSVSASVGDRVTITCRASQGISSWLAWYQQKPGKAPKLLIYAASSLANGVPSRFSGSGSGTDFTLTISSLQPEDFATYFCQQADSMPRTFGQGTKLEIK | 4.23 fold over 6E7 parental antibody | 4.7 fold over 6E7 parental antibody | 3.15 fold over 6E7 parental antibody |
| V38 (antibody, V domains shown, also called 6E7 variant V38) VH: EVQLVQSGAEVKKPGESLKISCKGSGYSFGSYWIAWVRQMPGKGLEWMGIIYPGDSDVRYSPSFQGQVTISADKSISTAYLQWSSLKASDTAMYFCARQRTFYYDSSDYFDYWGQGTLVTVSS VL: DIQMTQSPSSVSASVGDRVTITCRASQGISSWLAWYQQKPGKAPKLLIYAASSRQNGVPSRFSGSGSGTDFTLTISSLQPEDFATYFCQQADSHPRTFGQGTKLEIK | 4.34 fold over 6E7 parental antibody | 4.36 fold over 6E7 parental antibody | 3.44 fold over 6E7 parental antibody |
| V36 (antibody, V domains shown, also called 6E7 variant V36) VH: EVQLVQSGAEVKKPGESLKISCKGSGYSFTSYWLAWVRQMPGKGLEWMGIIYPGDSDTRYSPSFQGQVTISADKSISTAYLQWSSLKASDTAMYFCARSRTFYYDSSDYFDYWGQGTLVTVSS VL: DIQMTQSPSSVSASVGDRVTITCRASQGISSWLAWYQQKPGKAPKLLIYAASSRQNGVPSRFSGSGSGTDFTLTISSLQPEDFATYFCQQADSYPRTFGQGTKLEIK | 3.38 fold over 6E7 parental antibody | 3.44 fold over 6E7 parental antibody | 4 fold over 6E7 parental antibody |
| V15 (antibody, V domains shown, also called 6E7 variant V15) VH: EVQLVQSGAEVKKPGESLKISCKGSGYSFASYWIAWVRQMPGKGLEWMGTIYPGDSDTRYSPSFQGQVTISADKSISTAYLQWSSLKASDTAMYFCARSRTFYYDSSDYFDYWGQGTLVTVSS VL: DIQMTQSPSSVSASVGDRVTITCRASQGISSWLAWYQQKPGKAPKLLIYAASWLQNGVPSRFSGSGSGTDFTLTISSLQPEDFATYFCQQADSYPRTFGQGTKLEIK | 5.23 fold over 6E7 parental antibody | 4.78 fold over 6E7 parental antibody | 4.72 fold over 6E7 parental antibody |
| V29 (antibody, V domains shown, also called 6E7 variant V29) VH: EVQLVQSGAEVKKPGESLKISCKGSGYSFKSYWIAWVRQMPGKGLEWMGIIYPGDSDTRYSPSFQGQVTISADKSISTAYLQWSSLKASDTAMYFCARQRTFYYDSSDYFDYWGQGTLVTVSS VL: DIQMTQSPSSVSASVGDRVTITCRASQGISSWLAWYQQKPGKAPKLLIYAASSLQNGVPSRFSGSGSGTDFTLTISSLQPEDFATYFCQQADSFPRTFGQGTKLEIK | 1.53 fold over 6E7 parental antibody | 1.67 fold over 6E7 parental antibody | 0.84 fold over 6E7 parental antibody |
| V41 (antibody, V domains shown, also called 6E7 variant V41) VH: EVQLVQSGAEVKKPGESLKISCKGSGYSFTSYWIAWVRQMPGKGLEWMGTIYPGDSDTRYSPSFQGQVTISADKSISTAYLQWSSLKASDTAMYFCARQRTFYYDSSDYFDYWGQGTLVTVSS VL: DIQMTQSPSSVSASVGDRVTITCRASQGISSWLAWYQQKPGKAPKLLIYAASSLQNGVPSRFSGSGSGTDFTLTISSLQPEDFATYFCQQADSFPRTFGQGTKLEIK | 1.74 fold over 6E7 parental antibody | 1.72 fold over 6E7 parental antibody | 0.58 fold over 6E7 parental antibody |
| V16 (antibody, V domains shown, also called 6E7 variant V16) VH: EVQLVQSGAEVKKPGESLKISCKGSGYSMTSYWIAWVRQMPGKGLEWMGIIYPGDGDTRYSPSFQGQVTISADKSISTAYLQWSSLKASDTAMYFCARSRTFYYDSSDYFDYWGQGTLVTVSS VL: DIQMTQSPSSVSASVGDRVTITCRASQGISSWLAWYQQKPGKAPKLLIYAASNLQNGVPSRFSGSGSGTDFTLTISSLQPEDFATYFCQQADSFPRTFGQGTKLEIK | 4.01 fold over 6E7 parental antibody | 4.04 fold over 6E7 parental antibody | 3.57 fold over 6E7 parental antibody |
| V24 (antibody, V domains shown, also called 6E7 variant V24) VH: EVQLVQSGAEVKKPGESLKISCKGSGYSFTSYWIAWVRQMPGKGLEWMGIIYPGDSDVRYSPSFQGQVTISADKSISTAYLQWSSLKASDTAMYFCARSRTFYYDSSDYFDYWGQGTLVTVSS VL: DIQMTQSPSSVSASVGDRVTITCRASQGISSWLAWYQQKPGKAPKLLIYAASSLQKGVPSRFSGSGSGTDFTLTISSLQPEDFATYFCQQADSFPHTFGQGTKLEIK | 2.64 fold over 6E7 parental antibody | 2.9 fold over 6E7 parental antibody | 1.42 fold over 6E7 parental antibody |
| V28 (antibody, V domains shown, also called 6E7 variant V28) VH: EVQLVQSGAEVKKPGESLKISCKGSGYSFQSYWIAWVRQMPGKGLEWMGTIYPGDSDTRYSPSFQGQVTISADKSISTAYLQWSSLKASDTAMYFCARQRTFFYDSSDYFDYWGQGTLVTVSS VL: DIQMTQSPSSVSASVGDRVTITCRASQGISSWLAWYQQKPGKAPKLLIYAASSLQSGVPSRFSGSGSGTDFTLTISSLQPEDFATYFCQQADSLPRTFGQGTKLEIK | 3.08 fold over 6E7 parental antibody | 3.61 fold over 6E7 parental antibody | 2.63 fold over 6E7 parental antibody |
| V48 (antibody, V domains shown, also called 6E7 variant V48) VH: EVQLVQSGAEVKKPGESLKISCKGSGYSFGSYWIAWVRQMPGKGLEWMGIIYPGDSDVRYSPSFQGQVTISADKSISTAYLQWSSLKASDTAMYFCARMRTFYYDSSDYFDYWGQGTLVTVSS VL: DIQMTQSPSSVSASVGDRVTITCRASQGISSWLAWYQQKPGKAPKLLIYAASSLQTGVPSRFSGSGSGTDFTLTISSLQPEDFATYFCQQADSLPRTFGQGTKLEIK | 2.42 fold over 6E7 parental antibody | 2.54 fold over 6E7 parental antibody | 2.3 fold over 6E7 parental antibody |
| V17 (antibody, V domains shown, also called 6E7 variant V17) VH: EVQLVQSGAEVKKPGESLKISCKGSGYSFGSYWIAWVRQMPGKGLEWMGIIYPGDSDTRYSPSFQGQVTISADKSISTAYLQWSSLKASDTAMYFCARSRTFYYDSSDYFDYWGQGTLVTVSS VL: DIQMTQSPSSVSASVGDRVTITCRASQGISSWLAWYQQKPGKAPKLLIYAASSRQNGVPSRFSGSGSGTDFTLTISSLQPEDFATYFCQQADSSPRTFGQGTKLEIK | 5.37 fold over 6E7 parental antibody | 5.51 fold over 6E7 parental antibody | 4.22 fold over 6E7 parental antibody |
| V27 (antibody, V domains shown, also called 6E7 variant V27; LV-103/HV-103) VH: EVQLVQSGAEVKKPGESLKISCKGSGYSFTSYWIAWVRQMPGKGLEWMGIIYPGDSDTRYAPSFQGQVTISADKSISTAYLQWSSLKASDTAMYFCVRSRTFYYDSSDYFDYWGQGTLVTVSS VL: DIQMTQSPSSVSASVGDRVTITCRASQGISSWLAWYQQKPGKAPKLLIYAASSLQRGVPSRFSGSGSGTDFTLTISSLQPEDFATYFCQQADSFPRTFGQGTKLEIK | 5.5 fold over 6E7 parental antibody | 5.69 fold over 6E7 parental antibody | 5.67 fold over 6E7 parental antibody |
